Results: patent US20090258001A1

Tests used:
[1] = target: CD3 (CD3/TCR complex) on CD4+ and CD8+ T cells of patients (human) (UniProt P07766)
[2] = target: CD3 (CD3/TCR complex) on CD4+ and CD8+ T cells of patients (human) (UniProt P07766); assay: flow cytometry of CD4+ T cells, anti-human IgG; Example 4 Cohort A*, end of 0.25 mg infusion
[3] = target: CD3 (CD3/TCR complex) on CD4+ and CD8+ T cells of patients (human) (UniProt P07766); assay: flow cytometry of CD4+ T cells, free CD3 sites by biotinylated TRX4; Example 4 Cohort B, 0.75 mg
[4] = target: CD3 (CD3/TCR complex) on CD4+ and CD8+ T cells of patients (human) (UniProt P07766); assay: flow cytometry of CD4+ T cells, free CD3 sites by biotinylated TRX4; Example 4 Cohort B, 0.2 mg
[5] = target: CD3 (CD3/TCR complex) on CD4+ and CD8+ T cells of patients (human) (UniProt P07766); assay: flow cytometry, free sites by biotinylated TRX4; Example 4, 4-dose cohorts, 24 hours after infusion
[6] = target: CD3 (CD3/TCR complex) on CD4+ and CD8+ T cells of patients (human) (UniProt P07766); assay: flow cytometry, free sites by biotinylated TRX4; Example 4, 4-dose cohorts, after doses of 0.5 mg and higher
[7] = target: CD3 (CD3/TCR complex) on CD4+ and CD8+ T cells of patients (human) (UniProt P07766); assay: flow cytometry of CD4+ T cells, anti-human IgG; Example 4 Cohort C, end of 0.1 mg infusion
[8] = target: CD3 (CD3/TCR complex) on CD4+ and CD8+ T cells of patients (human) (UniProt P07766); assay: flow cytometry of CD4+ T cells, free CD3 sites by biotinylated TRX4; Example 4 Cohort A*, 0.05 mg
[9] = target: CD3 (CD3/TCR complex) on CD4+ and CD8+ T cells of patients (human) (UniProt P07766); assay: flow cytometry of CD4+ T cells, anti-human IgG; Example 3 Cohort 3, end of 0.3 mg infusion
[10] = target: CD3 (CD3/TCR complex) on CD4+ and CD8+ T cells of patients (human) (UniProt P07766); assay: flow cytometry of CD4+ T cells, free CD3 sites by biotinylated TRX4; Example 4 Cohort C, 1.0 mg
[11] = target: CD3 (CD3/TCR complex) on CD4+ and CD8+ T cells of patients (human) (UniProt P07766); assay: flow cytometry of CD4+ T cells, anti-human IgG; Example 4 Cohort A, end of 0.1 mg infusion
[12] = target: CD3 (CD3/TCR complex) on CD4+ and CD8+ T cells of patients (human) (UniProt P07766); assay: flow cytometry of CD4+ T cells, free CD3 sites by biotinylated TRX4; Example 3 Cohort 2, 2 hours after end of infusion
[13] = target: CD3 (CD3/TCR complex) on CD4+ and CD8+ T cells of patients (human) (UniProt P07766); assay: flow cytometry of CD4+ T cells, free CD3 sites by biotinylated TRX4; Example 4 Cohort C, 0.2 mg
[14] = target: CD3 (CD3/TCR complex) on CD4+ and CD8+ T cells of patients (human) (UniProt P07766); assay: flow cytometry of CD4+ T cells, anti-human IgG; Example 4 Cohort B, end of 0.75 mg infusion
[15] = target: CD3 (CD3/TCR complex) on CD4+ and CD8+ T cells of patients (human) (UniProt P07766); assay: flow cytometry of CD4+ T cells, anti-human IgG; Example 3 Cohort 3, end of 0.5 mg infusion
[16] = target: CD3 (CD3/TCR complex) on CD4+ and CD8+ T cells of patients (human) (UniProt P07766); assay: flow cytometry of CD4+ T cells, anti-human IgG; Example 4 Cohort B, end of 0.1 mg infusion
[17] = target: CD3 (CD3/TCR complex) on CD4+ and CD8+ T cells of patients (human) (UniProt P07766); assay: flow cytometry of CD4+ T cells, free CD3 sites by biotinylated TRX4; Example 4 Cohort A*, 0.15 mg
[18] = target: CD3 (CD3/TCR complex) on CD4+ and CD8+ T cells of patients (human) (UniProt P07766); assay: flow cytometry of CD4+ T cells, free CD3 sites by biotinylated TRX4; Example 4 Cohort A, 2 hours after last infusion
[19] = target: CD3 (CD3/TCR complex) on CD4+ and CD8+ T cells of patients (human) (UniProt P07766); assay: flow cytometry of CD4+ T cells, free CD3 sites by biotinylated TRX4; Example 4 Cohort A, 0.3 mg
[20] = target: CD3 (CD3/TCR complex) on CD4+ and CD8+ T cells of patients (human) (UniProt P07766); assay: flow cytometry of patients' CD4+ T cells, anti-human IgG; Example 3 Cohort 1 (0.1 mg x3), end of second infusion
[21] = target: CD3 (CD3/TCR complex) on CD4+ and CD8+ T cells of patients (human) (UniProt P07766); assay: flow cytometry of CD4+ T cells, free CD3 sites by biotinylated TRX4; Example 3 Cohort 2, second 0.5 mg dose
[22] = target: CD3 (CD3/TCR complex) on CD4+ and CD8+ T cells of patients (human) (UniProt P07766); assay: flow cytometry of CD4+ T cells, anti-human IgG; Example 4 Cohort C, about 24 hours after 1.0 mg infusion
[23] = target: CD3 (CD3/TCR complex) on CD4+ and CD8+ T cells of patients (human) (UniProt P07766); assay: flow cytometry of CD4+ T cells, anti-human IgG; Example 4 Cohort A, end of 0.5 mg infusion
[24] = target: CD3 (CD3/TCR complex) on CD4+ and CD8+ T cells of patients (human) (UniProt P07766); assay: flow cytometry of CD4+ T cells, free CD3 sites by biotinylated TRX4; Example 4 Cohort A, 0.1 mg
[25] = target: CD3 (CD3/TCR complex) on CD4+ and CD8+ T cells of patients (human) (UniProt P07766); assay: flow cytometry of CD4+ T cells, anti-human IgG; Example 4 Cohort A, 2 hours after 0.5 mg infusion

Sequence of UniProt P07766 (P07766 23-207, chain 1 of 3): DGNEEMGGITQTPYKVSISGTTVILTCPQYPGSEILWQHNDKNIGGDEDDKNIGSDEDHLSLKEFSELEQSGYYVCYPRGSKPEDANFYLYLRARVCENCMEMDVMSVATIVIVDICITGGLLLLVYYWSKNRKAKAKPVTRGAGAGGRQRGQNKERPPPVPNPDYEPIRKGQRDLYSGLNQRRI
Sequence of UniProt P07766 (chain, as listed by the source, chain 2 of 3): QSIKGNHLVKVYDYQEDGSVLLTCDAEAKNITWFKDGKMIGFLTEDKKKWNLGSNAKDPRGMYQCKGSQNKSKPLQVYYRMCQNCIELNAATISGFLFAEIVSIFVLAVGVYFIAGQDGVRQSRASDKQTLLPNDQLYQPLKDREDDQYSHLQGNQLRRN
Sequence of UniProt P07766 (chain, as listed by the source, chain 3 of 3): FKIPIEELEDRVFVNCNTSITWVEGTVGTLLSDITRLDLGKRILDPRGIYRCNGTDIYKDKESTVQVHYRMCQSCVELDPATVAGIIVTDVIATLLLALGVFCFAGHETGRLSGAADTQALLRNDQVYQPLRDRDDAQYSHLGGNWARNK

CD3/TCR modulation (decrease in MESF of TCR αβ on T cells, stained with non-competing antibody BMA031) [1]: > 80%
cell-bound TRX4 (MESF of anti-human IgG) [2]: 80000 MESF units
percent saturation of CD3 [3]: 95%
percent saturation of CD3 [4]: 60%
percent saturation of CD3 [5]: 40%
percent saturation of CD3 [6]: > 90%
cell-bound TRX4 (MESF of anti-human IgG) [7]: 800000 MESF units
percent saturation of CD3 [8]: 50%
cell-bound TRX4 (MESF of anti-human IgG) [9]: 300000 MESF units
percent saturation of CD3 [10]: 97%
cell-bound TRX4 (MESF of anti-human IgG) [11]: 200000 MESF units
percent saturation of CD3 [12]: 55%
percent saturation of CD3 [13]: 95%
cell-bound TRX4 (MESF of anti-human IgG) [14]: 480000 MESF units
cell-bound TRX4 (MESF of anti-human IgG) [15]: 800000 MESF units
cell-bound TRX4 (MESF of anti-human IgG) [16]: 2e+06 MESF units
percent saturation of CD3 [17]: 80%
percent saturation of CD3 [18]: 60%
percent saturation of CD3 [19]: 85%
cell-bound TRX4 (MESF of anti-human IgG) [20]: 300000 MESF units
percent saturation of CD3 [21]: 80%
cell-bound TRX4 (MESF of anti-human IgG) [22]: 200000 MESF units
cell-bound TRX4 (MESF of anti-human IgG) [23]: 450000 MESF units
percent saturation of CD3 [24]: 40%
cell-bound TRX4 (MESF of anti-human IgG) [25]: 400000 MESF units
Substance: TRX4 antibody
